The record followed here is FireProtDB (doi:10.1006/jmbi.1995.0616).

B1: Subtilisin-chymotrypsin inhibitor-2A, P01053 (parent)
chain: MSSVEKKPEGVNTGAGDRHNLKTEWPELVGKSVEEAKKVILQDKPEAQIIVLPVGTIVTMEYRIDRVRLFVDKLDNIAQVPRVG

Variants of B1 are the subject of the data set. Particulars: Hordeum vulgare; pH 6.25; 25 °C; GdnHCl; Fluorescence; MES 50 mM; reversible: yes; structure 2CI2; whole UniProt chain shown.

For the variant MSSVEKKPEGVNTGAGDRHNLKTEWPELVGKSVENAKKVILQDKPEAQIIVLPVGTIVTMEYRIDRVRLFVDKLDNIAQVPRVG, the “ddG of mutation (higher = less stable)” value was 0.08 kcal/mol, the denaturant m value was determined as 2.18 kcal/mol/M, the “denaturant midpoint (higher = more stable)” value (“denaturant midpoint” for short) came to 3.45 M and the unfolding free energy was found to be 7.52 kcal/mol.

Turning to MSSVEKKPEGVNTGAGDRHNLKTEWPELVGKSVEDAKKVILQDKPEAQIIVLPVGTIVTMEYRIDRVRLFVDKLDNIAQVPRVG, the “ddG of mutation (higher = less stable)” value was -0.36 kcal/mol, the denaturant m value worked out at 2.2 kcal/mol/M, the “denaturant midpoint” value was found to be 3.62 M and the unfolding free energy came out at 7.96 kcal/mol.

With MSSVEKKPEGVNTGAGDRHNLKTEWPELVGKSVEQAKKVILQDKPEAQIIVLPVGTIVTMEYRIDRVRLFVDKLDNIAQVPRVG, the “ddG of mutation (higher = less stable)” value was determined as 0.68 kcal/mol, the denaturant m value turned out to be 1.84 kcal/mol/M, the “denaturant midpoint” value was 3.76 M and the unfolding free energy was 6.92 kcal/mol.

As to MSSVEKKPEGVNTGAGDRHNLKTEWPELVGKSVEEGKKVILQDKPEAQIIVLPVGTIVTMEYRIDRVRLFVDKLDNIAQVPRVG, the “ddG of mutation (higher = less stable)” value worked out at 1.41 kcal/mol, the denaturant m value worked out at 1.8 kcal/mol/M, the “denaturant midpoint” value worked out at 3.44 M and the unfolding free energy was determined as 6.19 kcal/mol.

Regarding MSSVEKKPEGVNTGAGDRHNLKTEWPELVGKSVEEAKKVILADKPEAQIIVLPVGTIVTMEYRIDRVRLFVDKLDNIAQVPRVG, the “ddG of mutation (higher = less stable)” value worked out at 0.54 kcal/mol, the denaturant m value is 1.77 kcal/mol/M, the “denaturant midpoint” value came out at 3.99 M and the unfolding free energy stood at 7.06 kcal/mol.

Take MSSVEKKPEGVNTGAGDRHNLKTEWPELVGKSVEEAKKVILGDKPEAQIIVLPVGTIVTMEYRIDRVRLFVDKLDNIAQVPRVG: the “ddG of mutation (higher = less stable)” value came out at 0.92 kcal/mol, the denaturant m value worked out at 1.81 kcal/mol/M, the “denaturant midpoint” value was found to be 3.69 M and the unfolding free energy stood at 6.68 kcal/mol.

Take MSSVEKKPEGVNTGAGDRHNLKTEWPELVGKSVEEAKKVILQDKPEAQIIVIPVGTIVTMEYRIDRVRLFVDKLDNIAQVPRVG: the “ddG of mutation (higher = less stable)” value turned out to be 1.01 kcal/mol, the denaturant m value amounted to 1.7 kcal/mol/M, the “denaturant midpoint” value is 3.87 M and the unfolding free energy was determined as 6.59 kcal/mol.

On to MSSVEKKPEGVNTGAGDRHNLKTEWPELVGKSVEEAKKVILQDKPEAQIIVAPVGTIVTMEYRIDRVRLFVDKLDNIAQVPRVG, for which the “ddG of mutation (higher = less stable)” value was 1.74 kcal/mol, the denaturant m value was found to be 2.11 kcal/mol/M, the “denaturant midpoint” value was determined as 2.78 M and the unfolding free energy is 5.86 kcal/mol.

Consider MSSVEKKPEGVNTGAGDRHNLKTEWPELVGKSVEEAKKVILQDKPEAQIIVVPVGTIVTMEYRIDRVRLFVDKLDNIAQVPRVG, for which the “ddG of mutation (higher = less stable)” value was 1.02 kcal/mol, the denaturant m value was 1.76 kcal/mol/M, the “denaturant midpoint” value amounted to 3.74 M and the unfolding free energy is 6.58 kcal/mol.

For the variant MSSVEKKPEGVNTGAGDRHNLKTEWPELVGKSVEEAAKVILQDKPEAQIIVLPVGTIVTMEYRIDRVRLFVDKLDNIAQVPRVG, the “ddG of mutation (higher = less stable)” value stood at 1.13 kcal/mol, the denaturant m value is 1.73 kcal/mol/M, the “denaturant midpoint” value came out at 3.75 M and the unfolding free energy amounted to 6.47 kcal/mol.

For MSSVEKKPEGVNTGAGDRHNLKTEWPELVGKSVEEAGKVILQDKPEAQIIVLPVGTIVTMEYRIDRVRLFVDKLDNIAQVPRVG, the “ddG of mutation (higher = less stable)” value came to 2.01 kcal/mol, the denaturant m value turned out to be 1.99 kcal/mol/M, the “denaturant midpoint” value amounted to 2.8 M and the unfolding free energy came to 5.59 kcal/mol.

With MSSVEKKPEGVNTGAGDRHNLKTEWPELVGASVEEAKKVILQDKPEAQIIVLPVGTIVTMEYRIDRVRLFVDKLDNIAQVPRVG, the “ddG of mutation (higher = less stable)” value is 1.2 kcal/mol, the denaturant m value came out at 1.52 kcal/mol/M, the “denaturant midpoint” value was 4.22 M and the unfolding free energy is 6.4 kcal/mol.

For the variant MSSVEKKPEGVNTGAGDRHNLKTEWPELVGKSVEEAKKVILQDKPEAQIIVLPVGTIATMEYRIDRVRLFVDKLDNIAQVPRVG, the “ddG of mutation (higher = less stable)” value was found to be 0.67 kcal/mol, the denaturant m value stood at 2.14 kcal/mol/M, the “denaturant midpoint” value was 3.24 M and the unfolding free energy was found to be 6.93 kcal/mol.

Take MSSVEKKPEGVNTGAGDRHNLKTEWPELVGKSVEEAKKVILQDKPEAQIIVLPVGTIATMEYRIDRVRLFVDKLDNIAQAPRVG: the “ddG of mutation (higher = less stable)” value was 3.78 kcal/mol, the denaturant m value came out at 2.19 kcal/mol/M, the “denaturant midpoint” value came to 1.75 M and the unfolding free energy stood at 3.82 kcal/mol.

On to MSSVEKKPEGVNTGAGDRHNLKTEWPELVGKAVAAAKKVILQDKPEAQIIVLPVGTIVTMEYRIDRVRLFVDKLDNIAQVPRVG, for which the “ddG of mutation (higher = less stable)” value was 0.75 kcal/mol, the denaturant m value amounted to 2.18 kcal/mol/M, the “denaturant midpoint” value was 3.14 M and the unfolding free energy turned out to be 6.85 kcal/mol.

MSSVEKKPEGVNTGAGDRHNLKTEWPELVGKSVEEAKKVILQDKPEAQIIVLPVGTAVTMEYRIDRVRLFVDKLDNIAQVPRVG: the “ddG of mutation (higher = less stable)” value came out at 1.28 kcal/mol, the denaturant m value amounted to 1.59 kcal/mol/M, the “denaturant midpoint” value was determined as 3.98 M and the unfolding free energy worked out at 6.32 kcal/mol.

On to MSSVEKKPEGVNTGAGDRHNLKTEWPELVGKSVEEAKKVILQDKPEAQIIVVPVGTIATMEYRIDRVRLFVDKLDNIAQVPRVG, for which the “ddG of mutation (higher = less stable)” value came to 1.93 kcal/mol, the denaturant m value was found to be 1.86 kcal/mol/M, the “denaturant midpoint” value is 3.05 M and the unfolding free energy turned out to be 5.67 kcal/mol.

Consider MSSVEKKPEGVNTGAGDRHNLKTEWPELVGKSVEEAKKAILQDKPEAQIIVLPVGTIVTMEYRIDRVRLFVDKLDNIAQVPRVG, for which the “ddG of mutation (higher = less stable)” value amounted to 0.06 kcal/mol, the denaturant m value was found to be 2.01 kcal/mol/M, the “denaturant midpoint” value came out at 3.75 M and the unfolding free energy is 7.54 kcal/mol.

Consider MSSVEKKPEGVNTGAGDRHNLKTEWPELVGKSVEEAKKVILQDKPEAQIIVVPVGTIATMEYRIDRVRLLVDKLDNIAQVPRVG, for which the “ddG of mutation (higher = less stable)” value stood at 2.84 kcal/mol, the denaturant m value stood at 1.83 kcal/mol/M, the “denaturant midpoint” value was determined as 2.6 M and the unfolding free energy came out at 4.76 kcal/mol.

For the variant MSSVEKKPEGVNTGAGDRHNLKTEWPELVGKSVNEAKKVILQDKPEAQIIVLPVGTIVTMEYRIDRVRLFVDKLDNIAQVPRVG, the “ddG of mutation (higher = less stable)” value worked out at 0.28 kcal/mol, the denaturant m value turned out to be 2.01 kcal/mol/M, the “denaturant midpoint” value worked out at 3.64 M and the unfolding free energy is 7.32 kcal/mol.

Take MSSVEKKPEGVNTGAGDRHNLKTEWPELVGKSVQEAKKVILQDKPEAQIIVLPVGTIVTMEYRIDRVRLFVDKLDNIAQVPRVG: the “ddG of mutation (higher = less stable)” value stood at 0.4 kcal/mol, the denaturant m value came to 1.87 kcal/mol/M, the “denaturant midpoint” value is 3.85 M and the unfolding free energy is 7.2 kcal/mol.

For the variant MSSVEKKPEGVNTGAGDRHNLKTEWPELVGKSVDEAKKVILQDKPEAQIIVLPVGTIVTMEYRIDRVRLFVDKLDNIAQVPRVG, the “ddG of mutation (higher = less stable)” value is 0.77 kcal/mol, the denaturant m value was 1.83 kcal/mol/M, the “denaturant midpoint” value turned out to be 3.73 M and the unfolding free energy is 6.83 kcal/mol.

MSSVEKKPEGVNTGAGDRHNLKTEWPQLVGKSVEEAKKVILQDKPEAQIIVLPVGTIVTMEYRIDRVRLFVDKLDNIAQVPRVG: the “ddG of mutation (higher = less stable)” value was determined as 0.57 kcal/mol, the denaturant m value is 1.91 kcal/mol/M, the “denaturant midpoint” value worked out at 3.68 M and the unfolding free energy is 7.03 kcal/mol.

Turning to MSSVEKKPEGVNTGAGDRHNLKTEWPALVGKSVEEAKKVILQDKPEAQIIVLPVGTIVTMEYRIDRVRLFVDKLDNIAQVPRVG, the “ddG of mutation (higher = less stable)” value turned out to be 1.03 kcal/mol, the denaturant m value was determined as 1.75 kcal/mol/M, the “denaturant midpoint” value stood at 3.76 M and the unfolding free energy was found to be 6.57 kcal/mol.

On to MSSVEKKPEGVNTGAGDRHNLATEWPALVGKSVEEAKKVILQDKPEAQIIVLPVGTIVTMEYRIDRVRLFVDKLDNIAQVPRVG, for which the “ddG of mutation (higher = less stable)” value came out at 1.17 kcal/mol, the denaturant m value was found to be 1.87 kcal/mol/M, the “denaturant midpoint” value is 3.43 M and the unfolding free energy is 6.43 kcal/mol.

Regarding MSSVEKKPEGVNTGAGDRHNLKTEWPELVGKSVEEAKKVILQDKPEAQIIVAPVGTIVTMEYRIDRVRLAVDKLDNIAQVPRVG, the “ddG of mutation (higher = less stable)” value worked out at 5.16 kcal/mol, the denaturant m value worked out at 1.59 kcal/mol/M, the “denaturant midpoint” value was 1.53 M and the unfolding free energy is 2.44 kcal/mol.
